Test results reported in the RNAGym collection of RNA variant scans (doi:10.1073/pnas.2313332121).

B1: TPR t1 (parent)
chain: GACCAAUCUGCCCUCAGAGCUCGAGAACAUCUUCGGAUGCAGAGGAGGCAGGCUUCGGUGGCGCGAUAGCGCCAACGUCCUCAACCUCCAAUGCAUCCCACCACAUGAUGAUGCCUGAAGAGCCUUGGUUUUUUG

Variants of: B1
Experiment: polymerase ribozyme fitness, log enrichment relative to wild type (log ratio); higher = more active; in vitro selection for triplet polymerase activity
Method in brief: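 Fitness is a logarithmic measure of how a genotype enriched relative to the wild type, with replicate averages weighted by inverse variance. The logarithm uses base 2, and enrichment came from Illumina sequencing of input and output libraries. Those libraries were PCR-built, transcribed mutants of each subunit of a heterodimeric triplet polymerase ribozyme, passed through one triplicate in vitro selection round that included frozen incubation at −7 °C, gel excision of extended constructs and streptavidin-bead capture. Genotypes were kept only if they had ≥10 input reads and ≥1 read per output.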

First: G35C C53G C56U U130A
Second: C13A C124U U132A
The “polymerase ribozyme fitness (log ratio)” value of the first is lower: -6.86 for the first, -1.61 for the second.

Going from U9A A37U A41G to C62U U130G, the “polymerase ribozyme fitness (log ratio)” value falls from 0.164 to -1.41.

Compared with C56U A103U, C85U U87A C88A is higher in “polymerase ribozyme fitness (log ratio)” value: -4.81 for the first, -2.23 for the second.

Going from G48C G128A to C15U A16U G58C C72U C80A A111C, the “polymerase ribozyme fitness (log ratio)” value falls from -3.43 to -6.92.

C4U C56U and G60C U106C are within 0.2 log units of each other in “polymerase ribozyme fitness (log ratio)” value: -0.85 for the first, -0.702 for the second.

Compared with C4A A46U, C8A G61A is higher in “polymerase ribozyme fitness (log ratio)” value: -2.61 for the first, -0.475 for the second.

First: C4U C8G C13A U21G G77U C82A A84U A121C
Second: G45A C85G
The “polymerase ribozyme fitness (log ratio)” value of the first is higher: -0.469 for the first, -3.89 for the second.

A29C C62U C94A and C12G U55A C70U G113C are within 0.2 log units of each other in “polymerase ribozyme fitness (log ratio)” value: -3.98 for the first, -3.9 for the second.

First: C89U G120C
Second: C3U C20G G113A
The “polymerase ribozyme fitness (log ratio)” value of the first is higher: 0.737 for the first, -1.16 for the second.

Going from G36C G63U C98U to C97G G120U U126C, the “polymerase ribozyme fitness (log ratio)” value falls from -3.08 to -4.9.

First: C8A C49U
Second: G47A G71U C123A
The “polymerase ribozyme fitness (log ratio)” value of the first is higher: 0.0763 for the first, -0.967 for the second.

Going from C22A G44C A46U C101A A121C to C3U C79A G117A, the “polymerase ribozyme fitness (log ratio)” value rises from -4.64 to -4.

Going from C3U C12A A91U to U92A G110C, the “polymerase ribozyme fitness (log ratio)” value falls from -2.92 to -6.13.

First: C4U A68U A100U G117U
Second: G61C G128U
The “polymerase ribozyme fitness (log ratio)” value of the first is lower: -5.92 for the first, -3.46 for the second.

Going from G69C G122A to U7A U32C U55C G60C U129A, the “polymerase ribozyme fitness (log ratio)” value falls from -1.53 to -1.82.

Going from C70A C104A to U116G C124A, the “polymerase ribozyme fitness (log ratio)” value rises from -3.24 to 0.803.

First: G36A G71U U106A
Second: A16U G58A C72U
The “polymerase ribozyme fitness (log ratio)” value of the first is higher: -1.11 for the first, -1.69 for the second.

Going from G36U C101A U130C to G35U C73U U112C, the “polymerase ribozyme fitness (log ratio)” value falls from -1.6 to -2.9.

First: A2C C40G
Second: A5U A6U C62G C104U
The “polymerase ribozyme fitness (log ratio)” value of the first is lower: -2.5 for the first, -1.25 for the second.

First: A6U U106A U116A
Second: A43U C56A C85G
The “polymerase ribozyme fitness (log ratio)” value of the first is higher: -2.08 for the first, -3.95 for the second.

First: A5C C12A A27U
Second: A6C G69U U78C
The “polymerase ribozyme fitness (log ratio)” value of the first is lower: -4.25 for the first, 0.0885 for the second.

Going from C12U A27G C88A C123G U126A to C22U A46C, the “polymerase ribozyme fitness (log ratio)” value falls from -1.75 to -3.65.

Going from U78A C114A to C3A A6C A46G C49G G69C C104U, the “polymerase ribozyme fitness (log ratio)” value falls from -1.63 to -3.86.

Compared with A6U A50U G57C A75U, G42A C70A C88G is lower in “polymerase ribozyme fitness (log ratio)” value: -0.743 for the first, -6.71 for the second.

Compared with C4A C73A U81A, U14C U55C G117U U133G is lower in “polymerase ribozyme fitness (log ratio)” value: -3.04 for the first, -5.59 for the second.

First: U32G A43G C73U A105U G120C
Second: C40A G47A
The “polymerase ribozyme fitness (log ratio)” value of the first is lower: -7.51 for the first, -3.03 for the second.

Going from C102G U112A G127U to G65C G69U C114G G117C C124U G128C, the “polymerase ribozyme fitness (log ratio)” value falls from -4.33 to -5.15.

First: C28A G45A
Second: U78C A105C A121C
The “polymerase ribozyme fitness (log ratio)” value of the first is lower: -5.12 for the first, -0.547 for the second.

Compared with U9G G63U G120C, A27G C56G U81A C94A G122A C123A U131A is lower in “polymerase ribozyme fitness (log ratio)” value: 0.237 for the first, -5.75 for the second.

First: U9C G17U C20G G25C C115U
Second: A5C C89G C114G U126C U131A
The “polymerase ribozyme fitness (log ratio)” value of the first is lower: -6.98 for the first, -5.03 for the second.

Compared with G48U C79A U112A, C11G A46U C56U C70A C85A C104U is lower in “polymerase ribozyme fitness (log ratio)” value: -2.84 for the first, -6.28 for the second.

Compared with C56A C72A, A26U C40U C64U is lower in “polymerase ribozyme fitness (log ratio)” value: -0.579 for the first, -3.97 for the second.

First: C8U A29G A43G
Second: U55C C62U C89A U109A
The “polymerase ribozyme fitness (log ratio)” value of the first is higher: -3.05 for the first, -6.44 for the second.

First: A74C A84U
Second: C62U C101A
The “polymerase ribozyme fitness (log ratio)” value of the first is higher: -0.261 for the first, -0.746 for the second.

First: C40G G113A
Second: A16C U32G G69A U109C G135A
The “polymerase ribozyme fitness (log ratio)” value of the first is higher: -0.856 for the first, -6.26 for the second.

Compared with C11U C73G C102A A103U, A46C G48A is higher in “polymerase ribozyme fitness (log ratio)” value: -5.8 for the first, -1.9 for the second.

First: A6U U96C
Second: C56A C88U A95C A108G
The “polymerase ribozyme fitness (log ratio)” value of the first is higher: -0.215 for the first, -3.49 for the second.

First: A5C G52A
Second: G61C A84U
The “polymerase ribozyme fitness (log ratio)” value of the first is higher: -0.884 for the first, -1.95 for the second.

Compared with A2C G117C U131C U133C, G58C C73G C80U C102A G113A is lower in “polymerase ribozyme fitness (log ratio)” value: -4.66 for the first, -5.77 for the second.

Going from C3G A83C to G51C C64U, the “polymerase ribozyme fitness (log ratio)” value falls from -2.39 to -3.9.

Going from C15U A29U A37U C62G C124G G135C to C56A C72G A90G, the “polymerase ribozyme fitness (log ratio)” value rises from -2.45 to -1.05.

For G10U G47U G110U G117U G122A, the “polymerase ribozyme fitness (log ratio)” value was -4.52.
